± gives the uncertainty stated by the source.
B1: Ras GTPase-activating protein 1, residues 281 to 341; numbered along this chain, P20936 (parent)
chain: RRRVRAILPYTKVPDTDEISFLKGDMFIVHNELEDGWMWVTNLRTDEQGLIVEDLVEEVGR

Variants of: B1
Assay: abundance fitness (aPCA) (normalised: wild type 0, dead -1); higher = more abundant; growth selection in yeast, the domain comes from the species named
Conditions: Homo sapiens

Variant | abundance fitness
E18G | -0.507 ± 0.031
E18F | -0.498 ± 0.036
E18R | -0.353 ± 0.034
P9E | -0.103 ± 0.069
P9D | 0.049 ± 0.033
P9V | -0.855 ± 0.054
P9R | -0.311 ± 0.035
P9S | -0.044 ± 0.026
P9M | -0.308 ± 0.082
P9G | -0.059 ± 0.03
G36P | -0.597 ± 0.055
G36W | -0.867 ± 0.095
G36R | -0.188 ± 0.028
N42F | -0.782 ± 0.051
N42H | -0.381 ± 0.033
N42M | -0.577 ± 0.098
N42Q | -0.737 ± 0.1
N42T | -0.875 ± 0.064
R3C | -0.212 ± 0.029
R3W | -0.378 ± 0.054
R3A | -0.292 ± 0.035
R3H | -0.096 ± 0.032
R3V | -0.1 ± 0.028
R3D | -0.514 ± 0.037

Variant | abundance fitness
R3N | -0.126 ± 0.032
V52W | -0.047 ± 0.046
V52G | 0.059 ± 0.024
V52R | 0.043 ± 0.027
V52C | 0.024 ± 0.027
V52E | -0.123 ± 0.052
V52T | 0.023 ± 0.03
V52P | 0.04 ± 0.035
T45N | -0.005 ± 0.027
T45G | -0.851 ± 0.043
T45S | -0.098 ± 0.024
M38C | -0.228 ± 0.028
M38F | -0.18 ± 0.031
M38P | -0.867 ± 0.098
M38D | -0.871 ± 0.055
V59G | -0.176 ± 0.029
V59F | -0.106 ± 0.025
V59W | -0.137 ± 0.052
V59N | -0.19 ± 0.033
I19N | -1.03 ± 0.069
I19W | -1.04 ± 0.12
I51E | -0.899 ± 0.12
I51A | -0.481 ± 0.034
I51D | -0.814 ± 0.049

Variant | abundance fitness
I51L | -0.157 ± 0.029
I51G | -0.761 ± 0.039
S20T | -0.171 ± 0.035
S20W | -0.511 ± 0.1
S20D | -0.111 ± 0.029
S20G | -0.386 ± 0.028
S20E | -0.641 ± 0.08
S20A | -0.669 ± 0.053
S20C | -0.318 ± 0.029
L50V | -0.043 ± 0.024
L50D | -0.958 ± 0.055
L50H | -0.426 ± 0.036
L50W | -0.07 ± 0.051
L50G | -0.613 ± 0.031
W37M | 0.006 ± 0.037
W37F | -0.004 ± 0.021
D17Q | -0.011 ± 0.061
D17Y | -0.084 ± 0.026
D17F | -0.182 ± 0.028
D17W | -0.136 ± 0.051
D17S | -0.049 ± 0.024
F21I | -0.568 ± 0.024
F21H | -0.84 ± 0.036
D46Q | -0.11 ± 0.056

Variant | abundance fitness
D46S | -0.011 ± 0.023
D46L | -0.08 ± 0.026
D46M | -0.014 ± 0.045
D46T | -0.029 ± 0.028
D46N | 0.004 ± 0.025
D46Y | -0.098 ± 0.025
L43R | -0.437 ± 0.034
L43W | -0.748 ± 0.098
L43E | -0.026 ± 0.1
L43F | -0.425 ± 0.029
L43C | 0.007 ± 0.028
L43D | -0.422 ± 0.04
L43T | -0.038 ± 0.036
L43S | -0.19 ± 0.027
V29P | -0.959 ± 0.079
V29H | -0.881 ± 0.062
V29C | -0.363 ± 0.029
V29S | -0.866 ± 0.043
V29A | -0.694 ± 0.041
L33Q | 0.004 ± 0.05
L33M | -0.099 ± 0.055
L33C | -0.07 ± 0.026
L33Y | -0.051 ± 0.027
L33D | -0.182 ± 0.03

Variant | abundance fitness
L33R | 0.04 ± 0.03
L33A | -0.054 ± 0.031
L33T | -0.03 ± 0.03
L33E | -0.153 ± 0.065
L33I | -0.075 ± 0.028
L33S | -0.102 ± 0.025
E53I | -0.052 ± 0.03
E53P | -0.031 ± 0.04
M26Q | -0.056 ± 0.062
M26N | -0.029 ± 0.031
M26F | -0.042 ± 0.029
M26I | -0.039 ± 0.031
M26R | -0.186 ± 0.032
M26L | -0.026 ± 0.03
M26E | 0.117 ± 0.057
N31C | -0.129 ± 0.027
N31P | -0.841 ± 0.068
N31W | -0.043 ± 0.045
L55E | -0.765 ± 0.12
L55D | -0.394 ± 0.035
L55R | -0.034 ± 0.029
L55N | -0.02 ± 0.032
F27R | -0.905 ± 0.054
F27L | -0.241 ± 0.029

Variant | abundance fitness
F27W | -0.957 ± 0.1
F27T | -0.914 ± 0.069
F27G | -0.82 ± 0.04
F27M | -0.108 ± 0.07
V4P | -0.903 ± 0.045
V4K | -0.626 ± 0.043
V4R | -0.631 ± 0.025
V4L | -0.055 ± 0.021
V4Q | -0.848 ± 0.062
V4G | -0.901 ± 0.027
V4A | -0.462 ± 0.026
V4C | -0.465 ± 0.023
D15K | -0.169 ± 0.079
D15W | -0.276 ± 0.059
D15Y | -0.168 ± 0.028
R1D | 0.122 ± 0.053
R1G | -0.098 ± 0.047
R1C | -0.065 ± 0.031
R1Y | 0.018 ± 0.042
R1L | -0.067 ± 0.056
R1P | -0.283 ± 0.13
R44F | -0.637 ± 0.033
R44T | -0.319 ± 0.036
R44K | -0.648 ± 0.076

Variant | abundance fitness
R44V | -0.708 ± 0.047
R44L | -0.905 ± 0.052
R44E | -0.442 ± 0.091
E57V | -0.107 ± 0.035
E57F | -0.527 ± 0.049
E57M | -0.346 ± 0.081
E57Y | -0.357 ± 0.043
E57I | -0.223 ± 0.034
L22K | -0.07 ± 0.073
L22S | -0.108 ± 0.029
L22T | -0.153 ± 0.039
L22D | -0.045 ± 0.045
L22R | -0.045 ± 0.032
L22Y | -0.102 ± 0.035
L22I | 0.001 ± 0.033
T11G | -0.416 ± 0.033
T11Y | -0.278 ± 0.029
T11F | -0.184 ± 0.026
T11P | -0.696 ± 0.051
E58T | -0.023 ± 0.039
E58Y | -0.305 ± 0.031
E58L | -0.348 ± 0.033
E58H | -0.156 ± 0.034
